Results on 1 substance are retold here after paper PMC3981467.

The conditions of the series: phosphorylation at S183.

With p27/Kip1: S183A, the other result is on record as “no change”.
